Positions count from the first letter of the chain named. No end group written: not given here.

The target in one test is T1, Tau fragment 1-15 (human, UniProt P10636-8 1-15).
T1 construct: range 1-15
T1 peptide (looked up): MAEPRQEFEVMEDHA
Description: ELISA on Tau peptides (Example 8).

The target of another test is T2, Tau fragment 19-33 (human, UniProt P10636-8 19-33).
T2 construct: range 19-33
T2 peptide (looked up): GLGDRKDQGGYTMHQ
Description: ELISA on Tau peptides (Example 8).

In a further test the target is T3, MAPT(10-24) (human, also: biotinylated).
T3 construct: also called Tau fragment 10-24
T3 peptide: VMEDHAGTYGLGDRK
Description: ELISA on Tau peptides (Example 8). On the technique in general: An ELISA detects its analyte on a solid surface through an enzyme-linked reagent.

A further test addresses T4, Tau fragment 28-42 (human, UniProt P10636-8 28-42).
T4 construct: range 28-42
T4 peptide (looked up): GYTMHQDQEGDTDAG
Description: ELISA on Tau peptides (Example 8).

Another test addresses T5, Tau fragment 37-51 (human, UniProt P10636-8 37-51).
T5 construct: range 37-51
T5 peptide (looked up): GDTDAGLKESPLQTP
Description: ELISA on Tau peptides (Example 8).

The next test deals with T6, Oligomers (In vitro oligomerised (arachidonic acid and heparin) homo-oligomer of one polypeptide; one copy of the chain is given. Biotin sits on the AVI-tag, which is left out.).
T6 construct: also called oligoTau; oligomeric Tau; not shown: AVI-tag (site-specifically biotinylated) and any purification tag or linker of the construct
Description: capture ELISA, antibody on anti-IgG plate, biotinylated oligomeric Tau titrated. As to the method: For the oligoTau and monoTau capture ELISAs, antibodies contained in serum-free sterile hybridoma supernatants were immobilized on an anti-IgG coated plate at 500-fold dilution, followed by the incubation of oligoTau or monoTau, both with site-specific biotinylation via an AVI-tag. The target incubations started at 5 μg/mL and then were diluted 8- or 16-fold. Streptavidin-HRP and ABTS substrate was used for signal quantitation in a plate reader (Tecan, Switzerland). Results are expressed as O.D.

The target in test [1] is T7, full-length human Tau (flTau) (human, UniProt P10636-8 1-441).
T7 construct: also called human Tau, longest isoform (441 aa)
Description: direct ELISA, flTau coated at 1 µg/mL, hybridoma supernatant dilutions. The text has this: Serum-free supernatants were harvested from stable hybridomas. The supernatants containing antibodies of interest were then screened by ELISA assays to characterize antibody properties and select antibodies for further development. The ELISA assays were used to determine the following: binding to full-length human Tau (flTau; SignalChem, Canada), binding to hyperphosphorylated flTau (Genentech, USA), binding to oligomeric versus monomeric preparations of flTau, and binding to certain antibody Tau epitope(s).
Coating was done overnight in phosphate-buffered saline (PBS) at 4° C. Plates were washed thoroughly with 0.05% Tween-20/PBS and then blocked with 1% bovine serum albumin (BSA) in 0.05% Tween-20/PBS for 1 hr at 37° C. The antibody contained in the hybridoma supernatant was then added at the indicated dilutions, and incubated for 2 hrs at 37° C. after which the plates were washed as described previously.
For the direct ELISAs, an AP-conjugated anti-mouse IgG secondary antibody (Jackson ImmunoResearch Laboratories, United Kingdom) was added at 1/6000 dilution in 0.05% Tween-20/PBS for 2 hr at 37° C. After the final wash, plates were incubated with p-nitrophenyl phosphate disodium hexahydrate (pNPP; Sigma-Aldrich, Switzerland) phosphatase substrate solution, and read at 405 nm using an ELISA plate reader (Tecan, Switzerland). Results are expressed as optical densities (O.D.).

The next test has as its target T8, MAPT(2-24) (human, biotinylated).
T8 construct: also called Tau fragment 2-24
T8 peptide: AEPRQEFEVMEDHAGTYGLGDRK
Description: ELISA, biotinylated peptide on Neutravidin plate, IgG titrated. As to the method:
(§1) Following a comparison of 37D3-H9 binding to biotinylated Tau monomer and biotinylated peptide (MAPT_10-24), binding of 37D3-H9 to additional biotinylated peptides was also assessed. Nunc maxisorp 96-well microplates were coated at 4° C. for >12 hours with Neutravidin diluted to 2 μg/ml in 50 mM Sodium Carbonate Buffer, pH 9.6. All subsequent incubations were performed at room temperature. After coating, plates were blocked with Superblock™ (PBS) Blocking Buffer (Thermo Fisher Scientific) for two hours then washed thoroughly with PBS, 0.05% Polysorbate 20. Wells were then exposed to biotinylated Tau peptides (Table 20) or Avi-tag biotinylated Tau monomer at 1 μg/ml for one hour and washed as previously. Peptides were synthesized using standard solid-phase Fmoc chemistry (see, e.g., Fmoc solid phase peptide synthesis: A practical approach; Chan, W. C., White, P. D., Eds.; Oxford University Press: New York, 2000). […] Wells were washed as previously and bound antibody detected with peroxidase-conjugated secondary antibody (Invitrogen/Life Technologies) diluted 1/1000 in Superblock™ Blocking Buffer (Rabbit anti-Mouse IgG or Goat Anti-Human IgG (H+L) respectively). […] Reactions were stopped by addition of 1M Phosphoric Acid and absorbance at 450 nm was measured with a SpectraMax M2 platereader.

A further test addresses T9, MAPT(2-34) (human, biotinylated).
T9 construct: also called Tau fragment 2-34
T9 peptide: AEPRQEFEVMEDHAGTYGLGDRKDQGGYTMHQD
The test is described as above. As to the method:
as §1

The target of test [2] is T10, human Tau monomer (recombinant 2N4R isoform, amino acids 2-441) (human, UniProt P10636-8 2-441).
T10 construct: range 2-441; also called monomeric human Tau; monomeric Tau
Description: ELISA, Avi-tag biotinylated Tau monomer on Neutravidin plate, IgG titrated. As to the method:
as §1

T7 sequence (P10636 other isoform, or with tags, fused parts or gaps limits assumed): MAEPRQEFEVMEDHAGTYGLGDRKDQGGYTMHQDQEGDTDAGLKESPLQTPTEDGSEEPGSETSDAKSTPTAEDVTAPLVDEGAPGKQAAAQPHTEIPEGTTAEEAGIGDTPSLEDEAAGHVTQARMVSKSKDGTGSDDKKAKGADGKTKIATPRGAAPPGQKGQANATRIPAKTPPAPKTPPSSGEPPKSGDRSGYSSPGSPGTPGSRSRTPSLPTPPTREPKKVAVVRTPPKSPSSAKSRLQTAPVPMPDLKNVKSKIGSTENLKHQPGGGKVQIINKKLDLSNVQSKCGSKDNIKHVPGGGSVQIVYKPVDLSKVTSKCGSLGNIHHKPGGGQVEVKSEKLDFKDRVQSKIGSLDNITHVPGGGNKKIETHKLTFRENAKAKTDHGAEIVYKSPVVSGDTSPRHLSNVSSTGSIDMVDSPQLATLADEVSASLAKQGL

B1: 89F4-A1 (antibody, mouse IgG2a, V domains shown)
VH: EVQLVESGGGLVQPKGSLKLSCAASGFTFNTYAMNWVRQAPGKGLEWVARIRSKSNNYAAYFADSVKDRFTISRDDSQTMLYLQMNNLKSEDTAMYYCVSGGNYVPFAYWGQGTLVTVSA
VL: NIMMTQSPSSLAVSAGEKVTMSCKSSQSVFYSSEQRNYLAWYQQKPGQSPKLLISWASTRESGVPDRFTGSGSGTDFTLTISSVQGEDLAVYYCHQYLSSFTFGSGTKLEIK
On to B1, for which the binding result in the test with Tau fragment 1-15, with Tau fragment 19-33 and with MAPT(10-24) was “no binding (tested: not shown on the sheet)” in each case.

B2: 94B2-C1 (antibody, mouse IgG2a, V domains shown)
VH: EVQLQQSGPELVKPGASMKISCKASGYSLTGYTMNWVKQSHGKNLEWIGLISPYNGVTSYNQKFKGKATLTVDKSSNTAYMELLSLTFEDSAVYYCARQGAYWGQGTLVTVSA
VL: not shown
In the case of B2, the binding result with Tau fragment 28-42 and in the test with Tau fragment 37-51 was “no binding (tested: not shown on the sheet)” each time.

B3: 19H6-F7 (antibody, mouse IgG2a, V domains shown)
VH: EVQLVESGGDLVKPGGSLKLSCAASGFTFSSYGMSWVRQTPDKRLEWVATISSGGTYTYYPDSVKGRFTISRDNAKNTLYLQMSSLKSEDTAMYYCAPSYDGAMDYWGQGTSVTVSS
VL: DVLMTQTPLSLPVSLGDQASISCRSSQSIVHSNGNTYLEWYLQKPGQSPKLLIYKVSNRFSGVPDRFSGSGSGTDFTLKISRVEAEDLGVYYCFQGSLVPWTFGGGTKLEIK
B3: the binding result with Tau fragment 1-15, in the test with Tau fragment 19-33, with Tau fragment 28-42 and with Tau fragment 37-51 was “no binding (tested: not shown on the sheet)” in each case.

B4: 19F8-B1 (antibody, V domains shown)
VH: EVQLQQSGPELVKPGASVKMSCKASGYTFTDYYMKWVKQSHGKSLEWIGDLNPNNGGTLYNQKFKGQATLTVDKSSSTAYMQFNSLTSEDSAVYYCARSAGYGDSFAYWGQGTLVTVSA
VL: B3 VL with S28N, V90I, Y92F, L98H, W101P
notes: hybridoma supernatant
In the case of B4, the binding result with Oligomers is listed as “binds”.

B5: 12A10-E8 (antibody, V domains shown)
VH: QIQLVQSGPELKKPGETVKISCKASGYTFTNYGMNWVKQAPGKGLKWMGWINMYTGEPTYGDDFKGRFVFSLETSVSTVYLQINNLKKEDTATFFCARGGRPDYWGQGTSVTVSS
VL: B3 VL with S57F, S81N, F94L, L98H, W101Y
notes: hybridoma supernatant
Consider B5, for which the binding result in test [1] is reported as “binds”.

B6: 54C1-H11 (antibody, mouse IgG2a, V domains shown)
VH: B3 VH with L20V, A23V, S30R, E46D, T56N, P98S, D101S
VL: B3 VL with V2T, L3V, T7S, K55T, L98H
For the molecule B6, the binding result in the test with Tau fragment 1-15, in the test with Tau fragment 19-33, with Tau fragment 28-42 and with Tau fragment 37-51 was “no binding (tested: not shown on the sheet)” in each case.

B7: 11E10-B8 (antibody, mouse IgG2a, V domains shown)
VH: B3 VH with S30R, S53G, T56S, P98V
VL: B3 VL with V90L, L98H
Take B7: in the test with Oligomers, the binding result is listed as “binds”.

B8: 3A4-H4 (antibody, mouse IgG2a, V domains shown)
VH: B3 VH with Y95F, P98T
VL: B3 VL with S28N, S97T
Turning to B8, the binding result with Tau fragment 1-15 is “no binding (tested: not shown on the sheet)”; with Tau fragment 19-33 it was “no binding (tested: not shown on the sheet)”; with Tau fragment 28-42, “no binding (tested: not shown on the sheet)”; with Tau fragment 37-51, “no binding (tested: not shown on the sheet)”; in the test with MAPT(10-24), “binds”.

B9: 123E9-A1 (antibody, mouse IgG2a, V domains shown)
VH: B4 VH with L51I, N52D, L59S, Q67K, F83L, Y102F, A107S, Y108F, Q111L
VL: B3 VL with V90F, L98H, W101P
Take B9: the binding result in the test with Tau fragment 1-15, with Tau fragment 37-51 and with MAPT(10-24) was “no binding (tested: not shown on the sheet)” each time.

B10: 37D3-H9 (antibody, mouse IgG2a, V domains shown)
VH: B3 VH with V12A, A23T, F27L, T28I, S30R, S52N, P98N, D101S
VL: B3 VL with V2D, M4L, Q18P, L38F
notes: also called 37D3-H9 mIgG2a; 37D3-H9 IgG
Regarding B10, the EC50 (read off the curve) (as a rule, the concentration that produces a half-maximal response) is around 0.2 nM with MAPT(2-24), around 0.2 nM in the test with MAPT(2-34) and around 0.1 nM in test [2]. Moreover, the binding result with Tau fragment 1-15, in the test with Tau fragment 19-33, with Tau fragment 28-42 and with Tau fragment 37-51 was “no binding (tested: not shown on the sheet)” throughout.

B11: 26C1-C8 (antibody, V domains shown)
VH: EVHLQQSGAELVRSGASVKLSCTASGFNIKDYYMYWVKQRPEQGLEWIGWIDPENGDTEYFPKFQGKATMTADTSSKTAYLQLSSLTSEDTAVYYCNAWRARATNSALDYWGQGTSVTVSS
VL: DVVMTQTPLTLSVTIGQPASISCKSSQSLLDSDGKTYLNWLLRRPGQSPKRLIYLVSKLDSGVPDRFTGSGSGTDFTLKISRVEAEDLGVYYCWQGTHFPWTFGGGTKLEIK
notes: hybridoma supernatant
Turning to B11, the binding result with Oligomers was “binds”.

(Values after patent US20190112361A1 (Genentech, published 2019).)
